Results from PMC11315935, “Multi-layered heterochromatin interaction as a switch for DIM2-mediated DNA methylation” (Nature Communications, 2024).
Residue numbers refer to the chain shown, from its start. Names may count otherwise. “Also recorded” adds a separate entry of the source.

B1: DIM2R1104A: DIM2 with TRD mutation R1104A (protein)
chain: MDSPDRSHGGMFIDVPAETMGFQEDYLDMFASVLSQGLAKEGDYAHHQPLPAGKEECLEPIAVATTITPSPDDPQLQLQLELEQQFQTESGLNGVDPAPAPESEDEADLPDGFSDESPDDDFVVQRSKHITVDLPVSTLINPRSTFQRIDENDNLVPPPQSTPERVAVEDLLKAAKAAGKNKEDYIEFELHDFNFYVNYAYHPQEMRPIQLVATKVLHDKYYFDGVLKYGNTKHYVTGMQVLELPVGNYGASLHSVKGQIWVRSKHNAKKEIYYLLKKPAFEYQRYYQPFLWIADLGKHVVDYCTRMVERKREVTLGCFKSDFIQWASKAHGKSKAFQNWRAQHPSDDFRTSVAANIGYIWKEINGVAGAKRAAGDQLFRELMIVKPGQYFRQEVPPGPVVTEGDRTVAATIVTPYIKECFGHMILGKVLRLAGEDAEKEKEVKLAKRLKIENKNATKADTKDDMKNDTATESLPTPLRSLPVQVLEATPIESDIVSIVSSDLPPSENNPPPLTNGSVKPKAKANPKPKPSTQPLHAAHVKYLSQELVNKIKVGDVISTPRDDSSNTDTKWKPTDTDDHRWFGLVQRVHTAKTKSSGRGLNSKSFDVIWFYRPEDTPCCAMKYKWRNELFLSNHCTCQEGHHARVKGNEVLAVHPVDWFGTPESNKGEFFVRQLYESEQRRWITLQKDHLTCYHNQPPKPPTAPYKPGDTVLATLSPSDKFSDPYEVVEYFTQGEKETAFVRLRKLLRRRKVDRQDAPANELVYTEDLVDVRAERIVGKCIMRCFRPDERVPSPYDRGGTGNMFFITHRQDHGRCVPLDTLPPTLRQGFNPLGNLGKPKLRGMDLYCGGGNFGRGLEEGGVVEMRWANDIWDKAIHTYMANTPDPNKTNPFLGSVDDLLRLALEGKFSDNVPRPGEVDFIAAGSPCPGFSLLTQDKKVLNQVKNQSLVASFASFVDFYRPKYGVLENVSGIVQTFVNRKQDVLSQLFCALVGMGYQAQLILGDAWAHGAPQSRERVFLYFAAPGLPLPDPPLPSHSHYRVKNRNIGFLCNGESYVQRSFIPTAFKFVSAGEGTADLPKIGDGKPDACVRFPDHRLASGITPYIAAQYACIPTHPYGMNFIKAWNNGNGVMSKSDRDLFPSEGKTRTSDASVGWKRLNPKTLFPTVTTTSNPSDARMGPGLHWDEDRPYTVQEMRRAQGYLDEEVLVGRTTDQWKLVGNSVSRHMALAIGLKFREAWLGTLYD
modifications: left off: His6, N-terminal, cleaved | MBP, N-terminal, cleaved
notes: DIM2 with TRD mutation R1104A
B2: DIM2LLR: DIM2 L134A/L139A/R1104A triple mutation (protein)
chain: B1 chain with L134A, L139A
modifications: left off: His6, N-terminal, cleaved | MBP, N-terminal, cleaved
notes: DIM2 L134A/L139A/R1104A triple mutation
B3: DIM2W261A: DIM2 with W261A mutation to the RFTS domain (protein)
chain: B1 chain with W261A, A1104R
modifications: left off: His6, N-terminal, cleaved | MBP, N-terminal, cleaved
notes: DIM2 with W261A mutation to the RFTS domain
B4: DIM2W581A: DIM2 with W581A mutation to the BAH1 domain (protein)
chain: B1 chain with W581A, A1104R
modifications: left off: His6, N-terminal, cleaved | MBP, N-terminal, cleaved
notes: DIM2 with W581A mutation to the BAH1 domain

Columns and labels:
[1] = tested on: (CTA)12/(TAG)12 36-mer DNA duplex; test: In vitro DNA methylation assay of DIM2 (WT or mutant); type: biochemical; set-up: DNA methylation activity: unit not given here; details: for reduction of DNA methylation efficiency of DIM2 by mutation: vs WT DIM2
[2] = tested on: HP1; test: Size-exclusion chromatography of DIM2-HP1 complex; type: binding, Neurospora Crassa; details: 1.0 µM DIM2 and/or 2.5 µM HP1, Superdex 200 increase 10/300 GL, pH 7.5
Description: For size-exclusion chromatography analysis, 400 µL of the sample mixture containing 1.0 µM DIM2 and/or 2.5 µM HP1 was loaded onto Superdex 200 increase 10/300 GL column (GE Healthcare) and eluted at a flow rate of 0.5 mL/min, in the buffer containing 20 mM Tris-HCl (pH 7.5), 100 mM NaCl, 5% glycerol, and 5 mM DTT. The proteins in each fraction were then visualized by SDS-PAGE.

[3] = Thermal shift assay, protein alone; type: physicochemical; details: 5 μM DIM2 or 10 µM HP1, pH 7.5, 1× GloMelt Dye, 4 to 95 °C, triplicate
Description: Thermal shift assays were performed for WT and R1104A DIM2 proteins using a Bio-Rad CFX Connect Real-Time PCR Detection System. Each 20-µL reaction mixture contained 5 μM WT or R1104A-mutated DIM2, and/or 10 µM HP1 protein, dissolved in buffer containing 20 mM Tris-HCl (pH 7.5), 100 mM NaCl, 5% glycerol, 5 mM DTT, and 1× GloMelt Dye (Biotium). The sample plates were subject to heat from 4 to 95 °C with a stepwise increment of 5 °C. Fluorescence intensity was recorded with the excitation and emission wavelength of 470 nm and 510 nm, respectively. The experiments were carried out in triplicate.

[4] = tested on: DNA duplex (Upper strand: 5’-ATTATTAATCTAAATTTA-3’); test: Electrophoretic mobility shift assay (EMSA); type: binding; details: 0.1 µM DNA duplex, 0, 0.2 or 0.4 µM DIM2, in presence of 0.8 µM H3K9me3 peptide, pH 8.0, 4 °C
Description: Each 10-µL reaction mixture contained 0.1 µM DNA duplex (Upper strand: 5’-[…]-3’) mixed with 0, 0.2, or 0.4 µM DIM2, WT or mutant (W261A or W581A), and/or 0.8 µM H3K9me3 peptide in binding buffer containing 20 mM Tris-HCl (pH 8.0), 75 mM NaCl, 10% glycerol, 5 mM DTT, and 2% NP-40. Samples were resolved on a 5% w/v polyacrylamide gel (59:1 for acrylamide:bis-acrylamide) with the running buffer containing 1 × Tris-Glycine (pH 8.6) at 4 °C for 1 h. The gel was stained with SYBR™ Gold (Thermo Fisher Scientific) for 10 min and visualized by ChemiDoc Imaging System (Bio-Rad).

[5] = Fig. 6d, H3_1-24K9me3 binding-associated mutants, 1.0 µM DIM2, 1.0 µM DNA duplex, 30 °C, 30 min, pH 8.0, replicate 1
[6] = Fig. 6d, H3_1-24K9me3 binding-associated mutants, 1.0 µM DIM2, 1.0 µM DNA duplex, 30 °C, 30 min, pH 8.0, replicate 2
[7] = Fig. 6d, H3_1-24K9me3 binding-associated mutants, 1.0 µM DIM2, 1.0 µM DNA duplex, 30 °C, 30 min, pH 8.0, replicate 3

Row | Molecule | DNA methylation activity ([1]; Fig. 3h, in the presence of HP1 (2 µM) and H3_1-24K9me3 peptide (1.0 µM), 1.0 µM DIM2, 30 °C, 30 min, pH 8.0, replicate 1) | DNA methylation activity ([1]; Fig. 3h, in the presence of HP1 (2 µM) and H3_1-24K9me3 peptide (1.0 µM), 1.0 µM DIM2, 30 °C, 30 min, pH 8.0, replicate 2) | DNA methylation activity ([1]; Fig. 3h, in the presence of HP1 (2 µM) and H3_1-24K9me3 peptide (1.0 µM), 1.0 µM DIM2, 30 °C, 30 min, pH 8.0, replicate 3) | DIM2-HP1 complex formation (in words) [2] | melting temperature (Tm) [3] [°C] | DNA methylation activity of DIM2 (in words) ([1]; 1.0 µM DIM2, 30 °C, 30 min, pH 8.0) | DNA methylation activity ([1]; Fig. 2g, in the presence of HP1 (2 µM) and H3_1-24K9me3 peptide (1.0 µM), 1.0 µM DIM2, 30 °C, 30 min, pH 8.0, replicate 1) | DNA methylation activity ([1]; Fig. 2g, in the presence of HP1 (2 µM) and H3_1-24K9me3 peptide (1.0 µM), 1.0 µM DIM2, 30 °C, 30 min, pH 8.0, replicate 2) | DNA methylation activity ([1]; Fig. 2g, in the presence of HP1 (2 µM) and H3_1-24K9me3 peptide (1.0 µM), 1.0 µM DIM2, 30 °C, 30 min, pH 8.0, replicate 3) | DNA methylation activity [1, 5] | DNA methylation activity [1, 6] | DNA methylation activity [1, 7] | reduction of DNA methylation efficiency of DIM2 by mutation [1] | DNA-binding affinity of DIM2 (in words) [4]
1 | B1 | 3.1 | 2.552 | 2.87 | did not affect the assembly of the DIM2-HP1 complex appreciably; also recorded: barely impacts the association of the DIM2-HP1 complex | 39.5 |  |  |  |  |  |  |  |  | 
2 | B2 |  |  |  | complete disruption of the DIM2-HP1 complex |  | completely abolished the DNA methylation activity | 0.066 | 0.154 | 0.275 |  |  |  |  | 
3 | B3 |  |  |  |  |  |  |  |  |  | 3.359 | 3.206 | 3.347 | 4–5 fold | modestly reduced the DNA-binding affinity
4 | B4 |  |  |  |  |  |  |  |  |  | 4.016 | 4.128 | 4.356 | 4–5 fold | modestly reduced the DNA-binding affinity
